The values that follow come from publication PMC6393709.

As usually defined, the Kd is the constant that tells how readily two partners part at equilibrium. Low values mean a tighter complex, high ones a looser complex.

The test deals with PARP1 (protein used in the SPRi assay) (UniProt P09874). In words: SPR; SPRi on a PlexArray HT (V3), 25°C, 1x PBS pH 7.4. A general note: SPR reads the build-up and loss of mass on a sensor chip optically.
Sequence of UniProt P09874 (P09874 whole entry): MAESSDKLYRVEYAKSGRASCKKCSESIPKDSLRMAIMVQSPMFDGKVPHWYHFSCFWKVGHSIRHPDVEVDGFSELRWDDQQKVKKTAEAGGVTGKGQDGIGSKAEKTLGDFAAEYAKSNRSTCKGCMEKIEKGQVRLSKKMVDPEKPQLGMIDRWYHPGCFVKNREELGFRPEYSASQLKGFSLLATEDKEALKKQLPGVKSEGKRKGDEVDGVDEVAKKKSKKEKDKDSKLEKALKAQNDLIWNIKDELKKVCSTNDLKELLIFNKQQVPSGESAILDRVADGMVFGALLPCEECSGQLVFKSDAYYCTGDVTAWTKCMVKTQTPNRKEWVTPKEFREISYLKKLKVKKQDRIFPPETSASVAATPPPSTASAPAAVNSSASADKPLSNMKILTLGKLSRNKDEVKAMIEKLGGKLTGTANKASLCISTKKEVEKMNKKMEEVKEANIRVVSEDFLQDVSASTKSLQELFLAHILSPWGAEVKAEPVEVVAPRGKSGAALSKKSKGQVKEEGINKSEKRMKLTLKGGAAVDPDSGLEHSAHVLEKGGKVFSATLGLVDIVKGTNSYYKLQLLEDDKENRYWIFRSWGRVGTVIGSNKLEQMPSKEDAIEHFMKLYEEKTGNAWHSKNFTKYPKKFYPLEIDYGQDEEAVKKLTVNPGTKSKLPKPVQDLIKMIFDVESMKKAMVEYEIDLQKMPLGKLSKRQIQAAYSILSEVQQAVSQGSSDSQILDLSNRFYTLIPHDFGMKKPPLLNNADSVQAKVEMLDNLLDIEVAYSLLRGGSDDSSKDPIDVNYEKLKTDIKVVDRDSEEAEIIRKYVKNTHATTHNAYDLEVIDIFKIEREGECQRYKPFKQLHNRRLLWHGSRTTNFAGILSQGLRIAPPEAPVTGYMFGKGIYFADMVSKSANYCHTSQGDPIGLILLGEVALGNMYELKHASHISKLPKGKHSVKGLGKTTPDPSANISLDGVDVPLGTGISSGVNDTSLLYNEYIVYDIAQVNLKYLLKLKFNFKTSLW

In turn, “F-actin domain of ABL1 (domain or fragment)” had a Kd of 13.6 nM. That is a double-digit nanomolar value.
